In patent US7053177B1, “Random peptides that bind to gastro-intestinal tract (GIT) transport receptors and related methods” (Cytogen Corporation, priority 1997, dated 2006):
Ends that are not written are not given here. * marks the point of attachment. Dansyl = CN(C)c1cccc2c(S(=O)(=O)*)cccc12; K(dns) = dansyl-lysine

Columns and labels:
[1] = test system: P100 membrane fraction of Caco-2 cells; assay: Dansylated peptide ELISA: relative binding of PAX2 and HAX42 peptides to P100 fractions (ratio to ZElan021); conditions: ratio to ZElan021 = 1.00; for Binding value at 25 μg/ml: HAX42 peptides
Procedure, shortened: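 Plates coated overnight at 4 °C with Caco-2 P100 membrane fraction (normally 100 μg/ml, pH 9.6) and blocked with 2% Marvel/PBS were incubated with dansylated peptides. Binding was detected with anti-mouse λ-HRP and TMB, read at 650 nm, and expressed relative to ZElan021.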

[2] = test system: rat gastro-intestinal tract (closed loop); assay: Transport of preselected phage libraries in rat closed loop, detected by oligonucleotide hybridization/autoradiography; conditions: in words
Experimental: Four preselected phage libraries, GI-D2H, GI-hSI, GI-HPT1 and GI-hPEPT1, were constructed by pooling phage previously selected by screening random phage display libraries D38 and DC43 using the HPT1, HPEPT1, D2H and hSI receptor or binding sites located in the GIT.
In particular, phages selected in vitro to each receptor or binding site located in the GIT were amplified in E. coli, PEG-precipitated, resuspended in TBS and the titer of each phage sample was determined by plaquing in E. coli as described above. […] Using the in situ loop model described above, 0.5 ml of preselected phage library solution was injected into the tied-off portion of the duodenum/jejunum. Blood was collected into heparinized tubes from the portal vein at 0, 15, 30, 45 and 60 minutes. A blood sample was taken from the systemic circulation at the end of the experiment. Similarly, the portion of the duodenum/jejunum used for phage injection was taken at the end of the experiment.
Thirty microliters of the collected portal blood (neat and 10^−2, 10^−1, 10^−6 dilutions) was added to 30 μl E. coli K91Kan cells (overnight culture) and incubated at 37° C. for 10 min. Subsequently, 3 ml of top agarose was added and the samples were plated for plaques. One hundred microliters of the collected portal blood was added to 100 μl of E. coli K91Kan. Five milliliters of LB medium was then added and the samples were incubated at 37° C. overnight in a rotating microbial incubator. The E. coli was removed by centrifugation and the amplified phage supernatant samples were either titered directly or were PEG-precipitated, resuspended in TBS and titered. Following titration of the amplified phage, samples containing phage from each set of animals were combined, adjusting the titer of each sample to the same titer, and were plated for plaques on LB agar lates (22 cm^2 square plates). Either 12,000 or 24,000 phage were lated for plaques.
Thirty microliters of the collected systemic blood (neat and 10^−2, 10^−1, 10^−6 dilutions) was added to E. coli K91Kan cells, incubated at 37° C. for 10 min. Three ml of top agarose was then added and the samples were plated for plaques. One hundred microliters of the collected systemic blood was added to 100 μl of E. coli K91Kan, incubated at 37° C. for 10 min. Five milliliters of LB medium was then added and the samples were incubated at 37° C. overnight in a rotating microbial incubator. The E. coli was removed by centrifugation and the amplified phage supernatant samples were either titered directly or were PEG-precipitated, resuspended in TBS and titered. Following titration of the amplified phage, samples containing phage from each set of animals were combined, adjusting the titer of each sample to the same titer, and were plated for plaques on LB agar plates (22 cm^2 square plates). Either 12,000 or 24,000 phage were plated for plaques.
The intestinal tissue portion used in each closed loop was excised. […] Alternatively, the tissue (in PBS supplemented with protease inhibitors) was homogenized in an Ultra Thorex homogenizer, washed 3 times in PBS containing protease inhibitors and resuspended in PBS containing protease inhibitors (Int-G samples). In each case, serial dilutions (neat and 10^−2, 10^−4, 10^−6 dilutions) of the tissue homogenate was titered in E. coli.
The phage amplified from the portal blood, systemic blood and intestinal tissue was plated for plaques. […] The filters were air-dried, and the DNA was cross-linked to the filter (UV crosslinking: 2 min, high setting). The filters were incubated in pre-hybridization buffer (6×SSC, 5× Denhardt's solution, 0.1% SDS, […] yeast tRNA) at 40° C.–45° C. for at least 60 min.
Synthetic oligonucleotides, (22-mers), complimentary to regions coding for the receptor or binding sites used to create the preselected phage library, were synthesized (see Table 14 below).

[3] = biological target: bovine serum albumin (bovine) (UniProt P02769); assay: phage ELISA on coated BSA
Sequence of bovine serum albumin (bovine) (P02769 25-607 limits assumed): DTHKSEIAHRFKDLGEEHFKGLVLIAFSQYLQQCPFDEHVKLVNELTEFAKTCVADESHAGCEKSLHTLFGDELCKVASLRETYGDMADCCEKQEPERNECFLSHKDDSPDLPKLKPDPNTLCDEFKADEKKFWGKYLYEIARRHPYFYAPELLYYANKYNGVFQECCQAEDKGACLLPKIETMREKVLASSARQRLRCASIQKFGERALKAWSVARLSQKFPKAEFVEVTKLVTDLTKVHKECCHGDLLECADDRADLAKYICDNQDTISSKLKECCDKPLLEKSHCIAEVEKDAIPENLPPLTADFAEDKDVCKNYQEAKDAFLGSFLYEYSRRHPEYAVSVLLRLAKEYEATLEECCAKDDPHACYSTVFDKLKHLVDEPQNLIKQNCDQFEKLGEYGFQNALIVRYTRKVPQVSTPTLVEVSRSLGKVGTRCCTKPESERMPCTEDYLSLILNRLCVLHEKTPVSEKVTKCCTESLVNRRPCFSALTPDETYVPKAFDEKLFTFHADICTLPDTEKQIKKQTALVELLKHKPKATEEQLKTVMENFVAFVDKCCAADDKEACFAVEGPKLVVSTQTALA

H2N—K(dns)SDHALGTNLRSDNAK ({K(dns)}-SDHALGTNLRSDNAK; not fully specified (C-terminus); printed as H2N—K(dns)SDHALGTNLRSDNAK) [ZElan089]
Binding value at 25 μg/ml ([1]; first column): 0.55 | Binding value at 25 μg/ml ([1]; second column): 0.44 | Binding value at 25 μg/ml ([1]; third column): 0.49

H2N—K(dns)SDHALGTNLRSDNAKEPGDY ({K(dns)}-SDHALGTNLRSDNAKEPGDY; not fully specified (C-terminus); printed as H2N—K(dns)SDHALGTNLRSDNAKEPGDY) [ZElan087]
Binding value at 25 μg/ml ([1]; first column): 0.46 | Binding value at 25 μg/ml ([1]; second column): 0.44

H2N—K(dns)SDNAKEPGDYNCCGNGNSTG ({K(dns)}-SDNAKEPGDYNCCGNGNSTG-NH2; cysteine pairing not given here) [ZElan088]
Binding value at 25 μg/ml ([1]; first column): 2.21 | Binding value at 25 μg/ml ([1]; second column): 1.41 | Binding value at 25 μg/ml ([1]; third column): 1.63

K(Dansyl)GRNHDVVSSNTHKSYRSPRSASYPRLSNDRTDRTEPAPSS-NH2 [ZElan083]
Binding value at 20 μg/ml ([1]; PAX2 peptides, first column): 0.43 | Binding value at 20 μg/ml ([1]; PAX2 peptides, second column): 0.63 | Binding value at 50 μg/ml ([1]; PAX2 peptides, 50 μg/ml, second column): 0.88

STPPSREAYSRPYSVDSDSDTNAKHSSHNRRLRTRSRPN (not fully specified) [PAX2]
Presence in the portal or systemic circulation ([2]; HPT1 pool, PAX2 used at 4x concentration): found in the portal and systemic circulation | Binding to / presence in the intestine samples ([2]; hPEPT1 pool): not found | Presence in the portal circulation ([2]; hPEPT1 pool): found

B1: phage DCX45 (peptide)
peptide: SVGNDKTSRPVSFYGRVSDLWNASLMPKRTPSSKRHDDG
OD [3]: 0.075 OD 650 nm

B2: phage DAB3 (peptide)
peptide: RWCGAELCNSVTKKFRPGWRDHANPSTHHRTPPPSQSSP
OD [3]: 0.072 OD 650 nm

B3: phage SNiAX8 (peptide)
peptide: SPKLSSVGVMTKVTELPTEGPNAISIPISATLGPRNPLR
modifications: also: displayed as N-terminal pIII fusion on M13 phage
OD [3]: 0.068 OD 650 nm

B4: phage DAX23 (peptide)
peptide: REWRFAGPPLDLWAGPSLPSFNASSHPRALRTYWSQRPR
OD [3]: 0.153 OD 650 nm

B5: phage DAX27 (peptide)
peptide: SHPWYRHWNHGDFSGSGQSRHTPPESPHPGRPNATI
OD [3]: 0.424 OD 650 nm

B6: phage DCX33 (peptide)
peptide: RWNWTVLPATGGHYWTRSTDYHAINNHRPSIPHQHPTPI
OD [3]: 0.103 OD 650 nm

B7: phage SNi28 (peptide)
peptide: SHSGGMNRAYGDVFRELRDRWNATSHHTRPTPQLPRGPN
OD [3]: 0.113 OD 650 nm

B8: phage SNi10 (peptide)
peptide: RVGQCTDSDVRRPWARSCAHQGCGAGTRNSHGCITRPLRQASAH
OD [3]: 0.051 OD 650 nm

B9: phage DAB30 (peptide)
peptide: SGFWEFSRGLWDGENRKSVRSGCGFRGSSAQGPCPVTPATIDKH
OD [3]: 0.121 OD 650 nm

B10: phage PAX14 (peptide, not shown: large carriers)
peptide: RTFENDGLGVGRSIQKKSDRWYASHNIRSHFASMSPAGK
OD [3]: 0.139 OD 650 nm

B11: phage SNiAX2 (peptide)
peptide: SDSDGDHYGLRGGVRCSLRDRGCGLALSTVHAGPPSFYPKLSSP
modifications: cysteine pairing not given here; also: displayed as N-terminal pIII fusion on M13 phage
OD [3]: 0.065 OD 650 nm

B12: phage PAX16 (peptide, not shown: large carriers)
peptide: SWTRWGKHTHGGFVNKSPPGKNATSPYTDAQLPSDQGPP
OD [3]: 0.171 OD 650 nm

B13: phage DAB10 (peptide)
peptide: SKSGEGGDSSRGETGWARVRSHAMTAGRFRWYNQLPSDR
OD [3]: 0.153 OD 650 nm

B14: phage DAX15 (peptide)
peptide: SESGRCRSVSRWMTTWQTQKGGCGSNVSRGSPLDPSHQTGHATT
OD [3]: 0.101 OD 650 nm

B15: phage S22 (peptide)
peptide: SSSSDWGGVPGKVVRERFKGRGCGISITSVLTGKPNPCPEPKAA
OD [3]: 0.061 OD 650 nm

B16: phage S15 (peptide)
peptide: RSGAYESPDGRGGRSYVGGGGGCGNIGRKHNLWGLRTASPACWD
OD [3]: 0.053 OD 650 nm

B17: phage SNi34 (peptide)
peptide: SPCGGSWGRFMQGGLFGGRTDGCGAHRNRTSASLEPPSSDY
OD [3]: 0.115 OD 650 nm

B18: phage DAB18 (peptide)
peptide: RSSANNCEWKSDWMRRACIARYANSSGPARAVDTKAAP
OD [3]: 0.085 OD 650 nm

B19: phage DAB24 (peptide)
peptide: SKWSWSSRWGSPQDKVEKTRAGCGGSPSSTNCHPYTFAPPPQAG
OD [3]: 0.441 OD 650 nm

B20: phage SNi45 (peptide)
peptide: SGGEVSSWGRVNDLCARVSWTGCGTARSARTDNKGFLPKHSSLR
OD [3]: 0.056 OD 650 nm

B21: phage DCX26 (peptide)
peptide: SGRTTSEISGLWGWGDDRSGYGWGNTLRPNYIPYRQATNRHRYT
OD [3]: 0.213 OD 650 nm

B22: phage DAX24 (peptide)
peptide: RMEDIKNSGWRDSCRWGDLRPGCGSRQWYPSNMRSSRDYPAGGH
OD [3]: 0.118 OD 650 nm

B23: phage DAB7 (peptide)
peptide: RWCGADDPCGASRWRGGNSLFGCGLRCSAAQSTPSGRIHSTSTS
OD [3]: 0.09 OD 650 nm

B24: phage SNiAX6 (peptide)
peptide: RTTTAKGCLLGSFGVLSGCSFTPTSPPPHLGYPPHSVN
modifications: cysteine pairing not given here; also: displayed as N-terminal pIII fusion on M13 phage
OD [3]: 0.056 OD 650 nm

B25: phage SNi38 (peptide)
peptide: RGAADQRRGWSENLGLPRVGWDAIAHNSYTFTSRRPRPP
OD [3]: 0.076 OD 650 nm
